Laboratory results: patent publication US20240101688A1 (MYTHIC THERAPEUTICS, published 2024)
Residue numbers refer to the chain shown, from its start.

B1: MYT4942 (antibody, V domains shown)
VH: QVQLVQSGAEVKKPGASVKVSCKASGHIFTAYTMHWVRQAPGQGLEWMGWIKPNNGLANYAQKFQGRVTMTRDTSISTAYMELSRLRSDDTAVYYCARSEITHEFDHWGQGTLVTVSS
VL: DIVMTQSPDSLAVSLGERATINCKSSESVDSYANSHLHWYQQKPGQPPKLLIYRASTRESGVPDRFSGSGSGTDFTLTISSLQAEDVAVYYCQQSKEDPLTFGGGTKVEIKR
notes: Telisotuzumab variant
B2: MYT4826 (antibody, V domains shown)
VH: QVQLVQSGAEVKKPGASVKVSCKASGYTFTHYYMHWVRQAPGQGLEWMGRVNPNRRHTTYNQKFEGRVTMTTDTSTSTAYMELRSLRSDDTAVYYCARANWLDYWGQGTTVTVSS
VL: DIQMTQSPSSLSASVGDRVTITCSVSSSVSSIYLHWYQQKPGKAPKLLIYSTSNLASGVPSRFSGSGSGTDFTLTISSLQPEDFATYYCQVYSGYPLTFGGGTKVEIKR
notes: Emibetuzumab variant
B3: MYT5309 (antibody, V domains shown)
VH: B2 VH with H57G
VL: B2 VL with V91H
notes: Emibetuzumab variant
B4: MYT4837 (antibody, V domains shown)
VH: B2 VH with N54H
VL: B2 VL
notes: Emibetuzumab variant
B5: MYT4849 (antibody, V domains shown)
VH: B2 VH with H31D, H57G
VL: B2 VL with Y33H, S51H
notes: Emibetuzumab variant
B6: MYT4827 (antibody, V domains shown)
VH: B2 VH with H57G, N100H
VL: B2 VL
notes: Emibetuzumab variant
B7: MYT4313 (antibody, V domains shown)
VH: QVQLVQSGAEVKKPGASVKVSCKASGYTFTSYWMHWVKQAPGQGLDWIGYIKPSTDNTHYNQKFKDKATLTADKSTSTAYMELSSLRSEDTAVYYCARSYGHYPLMDYWGQGTTVTVSS
VL: QIVLTQSPAILSLSPGERATLSCSASSSVTSNYLYWYQQKPGSSPKLLIYSTSNLASGVPARFSGSGSGTSYTLTISSLEAEDAASYFCHQWSSYPPTFGSGTKLEIKR
notes: P3D12 variant
B8: MYT4305 (P3D12) (antibody, V domains shown)
VH: B7 VH with H59E, H102N
VL: QIVLTQSPAILSLSPGERATLSCSASSSVTSNYLYWYQQKPGSSPKLLIYSTSNLASGVPARFSGSGSGTSYTLTISSLEAEDAASYFCHQWSSYPPTFGSGTKLEIK
notes: Human IgG1; also called P3D12 anti-cMET
B9: MYT4888 (antibody, V domains shown)
VH: B7 VH with H59E, H102N, M106H
VL: B7 VL
notes: P3D12 variant; also called MYTH4888
B10: MYT5344 (antibody, V domains shown)
VH: B7 VH with P53H, H59E, H102N
VL: B7 VL with N32H
notes: P3D12 variant
B11: MYT5367 (antibody, V domains shown)
VH: B7 VH with Y50H, H59E, H102N
VL: B7 VL with S94H, P96H
notes: P3D12 variant
B12: MYT5351 (antibody, V domains shown)
VH: B7 VH with Y50H, H59E, H102N
VL: B7 VL with T52H
notes: P3D12 variant

Assays:
[1] = target: T1, MET (cMET, Sino Biological Cat. No. 10692-H08H) (UniProt P08581 25-932); test: BLI: antibody captured on anti-human Fc biosensor, MET in solution; three runs: pH 7.4 throughout (black), pH 6.4 throughout (light grey), association at pH 7.4 then release at lower pH (dark grey; key on D00015: pH 5.4; legend paragraph 84: pH 6.4); association 0-120 s
T1 construct: Soluble analyte of the BLI assays

[2] = target: T1, MET (cMET, Sino Biological Cat. No. …); test: BLI: antibody captured on anti-human Fc biosensor, MET in solution; association at pH 7.4 (0-120 s), dissociation at pH 7.4 (black trace) or pH 5.4 (grey trace)
Procedure: (§1) After allowing for four days of protein expression, cell culture supernatants were collected, quantified by SDS-PAGE analysis, and the pH dependence of the variant was evaluated using biolayer interferometry (BLI) on an Octet RED 96e instrument. Briefly, cell culture supernatants were diluted based on qualitative expression level of the variant determined by visual examination of SDS-PAGE gels, 5 μL of cell culture supernatant was diluted into 195 μL of 1×PBST, pH 7.4 for high expressors, 25 μL of cell culture supernatant was diluted into 175 μL of 1×PBST, pH 7.4 for medium expressors and 100 μL of cell culture supernatant was diluted into 100 μL of 1×PBST, pH 7.4 for low expressors for loading onto the sensor tips. Diluted supernatants were then captured on an anti-human Fc sensor (Forte Bio). A baseline was established using 1×PBST (50 mM Potassium Phosphate Buffer+150 mM NaCl+0.05% Tween 20), pH 7.4, and the sensor was associated with 50 nM of MET (cMET, Sino Biological Cat. No. 10692-H08H) in 1×PBST, pH 7.4, for 120 sec to generate an association curve. In the dissociation phase, the antibody-antigen complex on the sensor was exposed to 1×PBST, pH 7.4 or pH 5.4, for 300-600 sec.

[3] = target: T2, MET Proto-Oncogene, Receptor Tyrosine Kinase (MET), on cells (human, UniProt P08581 25-1390); test: flow cytometry titration on HUVEC cells (8k/cell), pH 7.4; printed as Affinity at pH 7.4
T2 construct: also called cMET; c-Met
Procedure: (§2) Measurement of the affinity of pH-engineered antibodies specific for MET was performed by FACS analysis on cell lines with ranges of cMET expression; Detroit-562 cells (ATCC; CCL-138), NCI-H1975 (ATCC CRL-5908) and HUVEC (C2519A, Lonza). Cell lines selected for this study were obtained from commercial sources and cultured using manufacturer recommended conditions. All cell lines were cultured upon receipt, expanded and cryopreserved at a similar passage number for use in the affinity experiments. Briefly, 1.0×10\hat{ }5 cells that express MET are plated per well in a 96-well plate in 100 μL media. The cells are washed two times with 200 μL of FACS buffer (1×PBS containing 3% Fetal Bovine Serum) at pH 7.4. The purified protein samples are diluted into FACS buffer at pH 7.4, for a titration from 100 nM to 1 pM, and added to the cells and allowed to bind for 2 hours on ice. After incubation with the primary antibodies, cells are washed twice as before, and then 100 μl of secondary goat anti-Human AF488 (IgG Cross-Adsorbed polyclonal secondary antibody), diluted 1:200, is added in FACS buffer pH 7.4, and incubated for 1 hour on ice. The plates are washed twice Binding is read on a flow cytometer (Accuri C6, BD Biosciences). Binding is observed as a shift in the FL1 signal (as a mean fluorescence intensity) versus secondary alone.

[4] = target: T2, MET Proto-Oncogene, Receptor Tyrosine …; test: affinity on HUVEC against affinity on Detroit-562, flow cytometry, pH 7.4
Procedure: as §2

[5] = target: T2, MET Proto-Oncogene, Receptor Tyrosine …; test: flow cytometry titration on Detroit-562 cells (125K/cell), pH 7.4; printed as Affinity at pH 7.4
Procedure: as §2

[6] = target: T1, MET (cMET, Sino Biological Cat. No. …); test: BLI: antibody captured on anti-human Fc biosensor, MET in solution; three runs: pH 7.4 throughout (black), pH 6.4 throughout (light grey), association at pH 7.4 then release at lower pH (dark grey; key on D00015: pH 5.4; legend paragraph 84: pH 6.4); association 0-120 s; remark: listed apart in the source
[7] = target: T1, MET (cMET, Sino Biological Cat. No. …); test: as above; remark: listed apart in the source
[8] = target: T1, MET (cMET, Sino Biological Cat. No. …); test: BLI: antibody captured on anti-human Fc biosensor, MET in solution; one run at pH 7.4 (black) and one at pH 5.4 (grey); association 0-120 s, then dissociation
Procedure: as §1, with “Bio).” for “Bio). A baseline was established using 1×PBST (50 mM Potassium Phosphate Buffer+150 mM NaCl+0.05% Tween 20), pH 7.4, and the sensor was associated with 50 nM of MET (cMET, Sino Biological Cat. No. 10692-H08H) in 1×PBST, pH 7.4, for 120 sec to generate an association curve. In the dissociation phase, the antibody-antigen complex on the sensor was exposed to 1×PBST, pH 7.4 or pH 5.4, for 300-600 sec.”

[9] = target: T1, MET (cMET, Sino Biological Cat. No. …); test: BLI: antibody captured on anti-human Fc biosensor, MET in solution; three runs: pH 7.4 throughout (black), pH 6.4 throughout (light grey), association at pH 7.4 then release at lower pH (dark grey; key on D00015: pH 5.4; legend paragraph 84: pH 6.4); association 0-120 s; remark: listed apart in the source

T1 sequence (P08581 25-932 limits assumed): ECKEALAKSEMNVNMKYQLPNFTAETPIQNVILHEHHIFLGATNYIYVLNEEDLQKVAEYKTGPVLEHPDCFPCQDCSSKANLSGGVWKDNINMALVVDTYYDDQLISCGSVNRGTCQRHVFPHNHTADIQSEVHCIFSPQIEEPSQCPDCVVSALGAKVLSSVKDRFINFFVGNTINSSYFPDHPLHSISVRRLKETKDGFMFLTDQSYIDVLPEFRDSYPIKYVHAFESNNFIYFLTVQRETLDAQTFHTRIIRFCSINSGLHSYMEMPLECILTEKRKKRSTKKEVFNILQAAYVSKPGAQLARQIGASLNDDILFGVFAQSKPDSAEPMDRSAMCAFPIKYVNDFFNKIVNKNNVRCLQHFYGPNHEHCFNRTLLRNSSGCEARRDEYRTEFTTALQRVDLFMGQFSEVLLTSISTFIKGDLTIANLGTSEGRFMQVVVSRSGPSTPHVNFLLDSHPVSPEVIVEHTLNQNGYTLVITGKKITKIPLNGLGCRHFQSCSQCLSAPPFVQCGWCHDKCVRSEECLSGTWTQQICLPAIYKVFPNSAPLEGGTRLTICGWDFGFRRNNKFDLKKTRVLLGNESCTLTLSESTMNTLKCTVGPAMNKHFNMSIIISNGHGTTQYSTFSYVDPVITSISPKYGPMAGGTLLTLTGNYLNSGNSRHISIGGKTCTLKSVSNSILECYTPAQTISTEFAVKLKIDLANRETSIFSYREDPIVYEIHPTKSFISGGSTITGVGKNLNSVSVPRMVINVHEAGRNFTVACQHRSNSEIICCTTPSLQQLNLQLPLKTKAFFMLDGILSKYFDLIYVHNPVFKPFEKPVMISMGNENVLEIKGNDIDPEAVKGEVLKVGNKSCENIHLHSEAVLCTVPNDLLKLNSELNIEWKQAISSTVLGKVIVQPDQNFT
T2 sequence (P08581 25-1390): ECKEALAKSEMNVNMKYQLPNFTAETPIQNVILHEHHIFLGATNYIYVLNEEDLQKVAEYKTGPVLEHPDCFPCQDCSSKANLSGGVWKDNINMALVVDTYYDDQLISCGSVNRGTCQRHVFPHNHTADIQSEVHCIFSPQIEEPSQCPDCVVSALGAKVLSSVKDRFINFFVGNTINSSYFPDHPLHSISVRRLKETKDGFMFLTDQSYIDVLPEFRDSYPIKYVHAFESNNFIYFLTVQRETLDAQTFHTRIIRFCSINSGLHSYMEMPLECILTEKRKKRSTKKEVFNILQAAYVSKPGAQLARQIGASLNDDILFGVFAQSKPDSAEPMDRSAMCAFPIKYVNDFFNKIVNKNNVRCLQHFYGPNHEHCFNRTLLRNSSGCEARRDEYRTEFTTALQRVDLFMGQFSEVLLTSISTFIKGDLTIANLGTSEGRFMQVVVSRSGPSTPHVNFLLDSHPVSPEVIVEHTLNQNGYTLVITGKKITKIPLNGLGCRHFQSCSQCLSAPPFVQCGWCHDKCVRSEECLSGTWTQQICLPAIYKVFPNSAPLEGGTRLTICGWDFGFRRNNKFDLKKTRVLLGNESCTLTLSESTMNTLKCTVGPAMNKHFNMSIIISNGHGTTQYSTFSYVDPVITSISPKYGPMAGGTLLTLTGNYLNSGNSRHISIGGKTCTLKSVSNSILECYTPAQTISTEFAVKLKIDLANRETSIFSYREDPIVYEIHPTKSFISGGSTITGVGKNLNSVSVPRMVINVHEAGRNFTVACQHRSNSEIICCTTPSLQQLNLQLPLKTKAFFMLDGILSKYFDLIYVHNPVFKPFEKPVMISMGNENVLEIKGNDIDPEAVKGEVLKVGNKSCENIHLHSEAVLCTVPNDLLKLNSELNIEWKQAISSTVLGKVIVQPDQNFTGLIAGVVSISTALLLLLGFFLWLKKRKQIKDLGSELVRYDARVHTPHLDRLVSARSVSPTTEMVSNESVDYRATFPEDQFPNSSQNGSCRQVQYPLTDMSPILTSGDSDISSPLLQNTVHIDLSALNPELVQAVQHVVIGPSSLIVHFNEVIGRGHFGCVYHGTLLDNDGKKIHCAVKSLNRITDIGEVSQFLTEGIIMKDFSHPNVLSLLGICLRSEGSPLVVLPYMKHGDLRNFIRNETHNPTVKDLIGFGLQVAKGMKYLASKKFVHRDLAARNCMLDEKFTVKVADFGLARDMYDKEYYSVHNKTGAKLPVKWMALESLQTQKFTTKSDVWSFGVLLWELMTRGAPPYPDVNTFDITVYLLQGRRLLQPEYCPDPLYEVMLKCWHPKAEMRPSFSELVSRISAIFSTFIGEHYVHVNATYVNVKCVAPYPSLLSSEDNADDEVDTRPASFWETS

Row | Binder | Kd [3] [nM] | Fold Avidity [4] [fold] | Kd [5] [nM] | also measured
1 | B1 |  |  |  | binding result [1]: binds
2 | B2 |  |  |  | binding result [2]: binds
3 | B3 | > 200 | > 50 | 1.34 | 
4 | B4 | > 100 | > 100 | 1.02 | 
5 | B5 |  |  |  | binding result [6]: binds
6 | B6 |  |  |  | binding result [7]: binds
7 | B7 |  |  |  | binding result [8]: binds
8 | B8 | 0.2 | 0.7 | 0.292 | 
9 | B9 |  |  |  | binding result [9]: binds
10 | B10 |  |  |  | binding result [2]: binds
11 | B11 |  |  |  | binding result [2]: binds
12 | B12 | > 100 | > 200 | 0.486 | 
